# Data reported in patent US20260308536A1, “NOVEL URICASE VARIANTS AND METHODS OF USE THEREOF” (priority 2023, published 2026).
# Tests used:
# Format in all cases: biochemical, Aspergillus flavus
# [1] = test system: O=c1[nH]c(=O)c2[nH]c(=O)[nH]c2[nH]1; assay: Michaelis-Menten kinetics, RasU_D12-W160E; details: other: role: substrate; RasU_D12-W160E (SEQ ID NO: 268); pH 10.5; 25.0 °C
# Text: (§1) Select Aspergillus flavus uricase variants RasU_D12, as well as its subvariants RasU_D12-A56T, and RasU_D12-W160E; and RasU_D8, as well as its subvariants RasU_D8-T33V, RasU_D8-Y65H, RasU_D8-W160E, RasU_D8-A209N, and RasU_D8-T210K were subject to further characterization by comparing their expression yields, Michaelis-Menten kinetics parameters, and thermostability measured by temperatures at which 50% of normal activity was lost determined by heat stress activity assay, with those of the wild type Aspergillus flavus uricase. As the names of the subvariants indicated, the subvariants of RasU_D12 were constructed by introducing an additional amino acid substitution A56T or W160E into the RasU_D12 variant, while the subvariants of RasU_D8 were constructed by introducing an additional amino acid substitution T33V, Y65H, W160E, A209N, or T210K into the RasU_D8 variant. Each of the additional amino acid substitutions was to address residual T cell epitopes in the RasU_D8 or RasU_D12 variant. The expression yields were determined as described above in the “Methods” section. The determination of the Michaelis-Menten kinetics parameters kcat and KM, and the heat stress activity assay were likewise performed using the methods described in Example 1. […]
# [2] = test system: O=c1[nH]c(=O)c2[nH]c(=O)[nH]c2[nH]1; assay: Michaelis-Menten kinetics, RasU_D8-W160E; details: other: role: substrate; RasU_D8-W160E (SEQ ID NO: 271); pH 10.5; 25.0 °C
# Text: as §1
# [3] = test system: O=c1[nH]c(=O)c2[nH]c(=O)[nH]c2[nH]1; assay: Michaelis-Menten kinetics, RasU_D12-A56T; details: other: role: substrate; RasU_D12-A56T (SEQ ID NO: 267); pH 10.5; 25.0 °C
# Text: as §1
# [4] = test system: O=c1[nH]c(=O)c2[nH]c(=O)[nH]c2[nH]1; assay: Michaelis-Menten kinetics, RasU_D8-T210K; details: other: role: substrate; RasU_D8-T210K (SEQ ID NO: 273); pH 10.5; 25.0 °C
# Text: as §1
# [5] = test system: O=c1[nH]c(=O)c2[nH]c(=O)[nH]c2[nH]1; assay: Michaelis-Menten kinetics, RasU_D8-Y65H; details: other: role: substrate; RasU_D8-Y65H (SEQ ID NO: 270); pH 10.5; 25.0 °C
# Text: as §1
# [6] = test system: O=c1[nH]c(=O)c2[nH]c(=O)[nH]c2[nH]1; assay: Michaelis-Menten kinetics, RasU_D8-T33V; details: other: role: substrate; RasU_D8-T33V (SEQ ID NO: 269); pH 10.5; 25.0 °C
# Text: as §1
# [7] = test system: O=c1[nH]c(=O)c2[nH]c(=O)[nH]c2[nH]1; assay: Michaelis-Menten kinetics, RasU_D8; details: other: role: substrate; RasU_D8 (SEQ ID NO: 236); pH 10.5; 25.0 °C
# Text: as §1
# [8] = test system: O=c1[nH]c(=O)c2[nH]c(=O)[nH]c2[nH]1; assay: Michaelis-Menten kinetics, RasU_D8-A209N; details: other: role: substrate; RasU_D8-A209N (SEQ ID NO: 272); pH 10.5; 25.0 °C
# Text: as §1
# [9] = test system: O=c1[nH]c(=O)c2[nH]c(=O)[nH]c2[nH]1; assay: Michaelis-Menten kinetics, RasU_D12; details: other: role: substrate; RasU_D12 (SEQ ID NO: 229); pH 10.5; 25.0 °C
# Text: as §1
substance,measurement,setting,value
Aspergillus flavus uricase variant RasU_D12-W160E (Aspergillus flavus; A230N/A241D/A97K/E42N/I83E/N101D/S148D/T211K/W161E),Km,[1],1700 ± 1000 µM
same,kcat,[1],1.7 ± 0.5 s⁻¹
Aspergillus flavus uricase variant RasU_D8-W160E (Aspergillus flavus; A230N/A241D/A97K/E42N/I83E/N101D/S148D/V54N/W161E),Km,[2],600 ± 200 µM
same,kcat,[2],1.2 ± 0.2 s⁻¹
Aspergillus flavus uricase variant RasU_D12-A56T (Aspergillus flavus; A230N/A241D/A57T/A97K/E42N/I83E/N101D/S148D/T211K),Km,[3],1500 ± 600 µM
same,kcat,[3],1.4 ± 0.3 s⁻¹
Aspergillus flavus uricase variant RasU_D8-T210K (Aspergillus flavus; A230N/A241D/A97K/E42N/I83E/N101D/S148D/T211K/V54N),Km,[4],3000 ± 2000 µM
same,kcat,[4],2.0 ± 0.7 s⁻¹
Aspergillus flavus uricase variant RasU_D8-Y65H (Aspergillus flavus; A230N/A241D/A97K/E42N/I83E/N101D/S148D/V54N/Y66H),Km,[5],3000 ± 1000 µM
same,kcat,[5],1.7 ± 0.5 s⁻¹
Aspergillus flavus uricase variant RasU_D8-T33V (Aspergillus flavus; A230N/A241D/A97K/E42N/I83E/N101D/S148D/T34V/V54N),Km,[6],3000 ± 1000 µM
same,kcat,[6],1.6 ± 0.5 s⁻¹
Aspergillus flavus uricase variant RasU_D8 (Aspergillus flavus; A230N/A241D/A97K/E42N/I83E/N101D/S148D/V54N),Km,[7],900 ± 200 µM
same,kcat,[7],0.8 ± 0.1 s⁻¹
Aspergillus flavus uricase variant RasU_D8-A209N (Aspergillus flavus; A210N/A230N/A241D/A97K/E42N/I83E/N101D/S148D/V54N),Km,[8],1100 ± 300 µM
same,kcat,[8],1.1 ± 0.1 s⁻¹
Aspergillus flavus uricase variant RasU_D12 (Aspergillus flavus; A230N/A241D/A97K/E42N/I83E/N101D/S148D/T211K),Km,[9],400 ± 100 µM
same,kcat,[9],1.3 ± 0.1 s⁻¹
